Experimental data: publication PMC13132431, “Epigenetic gene regulation is controlled by distinct regulatory complexes utilizing specialized paralogs of TELOMERE REPEAT BINDING FACTORS”

T1: HIS-TRB1 (Arabidopsis thaliana, UniProt Q8VWK4 1-300)
T1 sequence: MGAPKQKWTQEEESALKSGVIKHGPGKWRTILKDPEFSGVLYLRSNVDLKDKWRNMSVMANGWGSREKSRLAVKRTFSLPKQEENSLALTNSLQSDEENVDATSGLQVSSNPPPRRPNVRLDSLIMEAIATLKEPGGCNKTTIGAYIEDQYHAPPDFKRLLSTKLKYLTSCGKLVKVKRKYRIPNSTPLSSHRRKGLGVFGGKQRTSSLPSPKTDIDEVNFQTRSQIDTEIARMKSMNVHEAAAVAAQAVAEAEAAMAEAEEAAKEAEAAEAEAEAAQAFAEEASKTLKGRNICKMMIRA

T2: HIS-TRB3 (Arabidopsis thaliana, UniProt Q9M2X3 1-295)
T2 sequence: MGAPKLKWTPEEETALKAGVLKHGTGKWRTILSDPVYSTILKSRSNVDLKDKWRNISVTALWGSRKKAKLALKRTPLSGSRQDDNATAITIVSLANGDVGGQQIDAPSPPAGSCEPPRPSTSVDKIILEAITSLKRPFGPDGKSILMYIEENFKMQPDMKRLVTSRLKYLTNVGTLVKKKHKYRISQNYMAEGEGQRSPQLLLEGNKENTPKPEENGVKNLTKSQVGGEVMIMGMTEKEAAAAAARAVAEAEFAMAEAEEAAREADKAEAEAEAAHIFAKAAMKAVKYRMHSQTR


How the values were obtained:
[1] = biological target: T1, HIS-TRB1; test: MST; MST: 50 mM NaPO4, 300 mM NaCl, pH 7.5, 0.05% Tween 20, 1.25 mg/ml BSA; 20 nM Cy3-dsDNA, 260 pM-8.5 uM protein; 10 min at RT; details: protein: recombinant; tags: 6xHis (pET-28b); label: 5'-Cy3 on both strands; blunt
[2] = biological target: T2, HIS-TRB3; test: as above; details: protein: recombinant; tags: 6xHis (pET-28b); label: 5'-Cy3 on both strands; blunt

Row | Binder | Kd [1] | Kd [2] | binding result [1]
1 | R4 telo-box (4x repeat) (dsDNA) DNA 1: GGTTTAGGGTTTAGGGTTTAGGGTTTAG DNA 2: CTAAACCCTAAACCCTAAACCCTAAACC | 567 ± 180 nM | 531 ± 30 nM | –
2 | proSEP3-telo-box (dsDNA) DNA 1: TTTAAATGTTAGGGTTTTTTGTAGGATT DNA 2: AATCCTACAAAAAACCCTAACATTTAAA | – | 640 ± 19 nM | no binding
3 | (C)GACCTAA (dsDNA) DNA 1: CATCATGGCGACCTAAGGCTGGTACTAG DNA 2: CTAGTACCAGCCTTAGGTCGCCATGATG | – | 652 ± 64 nM | no binding
4 | (C)AACCTAA (dsDNA) DNA 1: CATCATGGCAACCTAAGGCTGGTACTAG DNA 2: CTAGTACCAGCCTTAGGTTGCCATGATG | 4900 ± 1000 nM | 298 ± 48 nM | –
